Reference: US20160304615A1 (Regeneron, published 2016)

Assays:
[1] = molecular target: T1, full-length hEGFRvIII on cells (human, UniProt P00533 298-1210); assay: cell-based or functional assay
[2] = molecular target: T2, wild-type human EGFR on cells (human, UniProt P00533 25-1210); assay: FACS, A431 cells, PE secondary antibody
T2 construct: Stands for transfected HEK293/hEGFRwt, endogenous EGFR of A431 and of parental HEK293 cells, and human EGFR of hEGFR mice; the cell line is named under assay; also called EGFRwt; hEGFRwt
Experimental: (§1) To determine the specificity of the anti-EGFRvIII mAbs, their binding to HEK293, HEK293 cells expressing EGFRvIII (HEK293/EGFRvIII) and A431 cells, was analyzed by fluorescence activated cell sorting (FACS). HEK293/EGFRvIII cells were prepared by transfecting HEK293 cells with neomycin resistant DNA vectors constitutively expressing full-length hEGFRvIII (SEQ ID NO:147) using LIPOFECTAMINE™ 2000 transfection reagent (INVITROGEN™). At two days post-transfection, cells were placed under G418 selection for approximately two weeks. Populations positively expressing EGFRvIII were isolated via fluorescence activated cell sorting (FACS). The HEK293 cells expressing ˜3×10⁶ copies of EGFRvIII per cell were used in the experiment. […] In another set of experiment, anti-EGFRvIII antibodies were directly conjugated via their lysine residues with the fluorescent dye, ALEXA FLUOR® 488 Dye (INVITROGEN™), thereby eliminating the step using the secondary antibody. […] Controls I, II, III, IV and V are described above. MFI: Mean Fluorescence Intensity.

[3] = molecular target: T2, wild-type human EGFR on cells; assay: FACS, A431 cells, directly labeled antibody
Experimental: as §1

[4] = molecular target: T3, EGFR-mmh (human, UniProt P00533 25-647, limits assumed); assay: ELISA; ELISA, 25 C, EGFR-mmh coated on the plate
T3 construct: Soluble monomeric protein; also called hEGFR-mmh
Description: (§2) To further characterize anti-hEGFRvIII mAbs, their binding specificity was examined by ELISA. […] Also, coated was an irrelevant peptide (control peptide) with or without biotin at its N-terminal. […] The plates were then washed and bound anti-EGFRvIII mAbs were detected with anti-human Fc antibodies conjugated with horse-radish peroxidase (HRP). […] Data analysis used a sigmoidal dose-response model within PRISM™ software.

[5] = molecular target: T1, full-length hEGFRvIII on cells; assay: FACS, HEK293/EGFRvIII cells, PE secondary antibody
Experimental: as §1

[6] = molecular target: T4, EGFRvIII-mmh (human, UniProt P00533 298-647, limits assumed); assay: ELISA; ELISA, 25 C, EGFRvIII-mmh coated on the plate
T4 construct: Soluble monomeric protein; also called hEGFRvIII-mmh; hEGFRvIII.mmh
Description: as §2

[7] = molecular target: T1, full-length hEGFRvIII on cells; assay: FACS, HEK293/EGFRvIII cells, directly labeled antibody
Experimental: as §1

[8] = molecular target: T5, EGFR-mFc (human); assay: SPR 37C, receptor-capture; 37 C, receptor-capture format (EGFR-mFc captured)
T5 construct: Soluble dimeric protein
Experimental: (§3) Measurements were conducted on a T100 BIACORE™ instrument. […] In the receptor-capture format, either EGFRvIII-mFc or EGFR-mFc, was captured on the BIACORE™ chip and the respective antibodies flowed over. Kinetic association (kₐ) and dissociation (kd) rate constants were determined by processing and fitting the data to a 1:1 binding model using Scrubber 2.0 curve fitting software. Binding dissociation equilibrium constants (KD) and dissociative half-lives (t_{1/2}) were calculated from the kinetic rate constants as: KD (M)=kd/kₐ; and t₁₁₂ (min)=ln2/(60*kd).

[9] = molecular target: T6, EGFRvIII-mFc (human); assay: SPR 37C, receptor-capture; 37 C, receptor-capture format (EGFRvIII-mFc captured)
T6 construct: Soluble dimeric protein
Experimental: as §3

[10] = molecular target: T4, EGFRvIII-mmh; assay: ELISA
Description: as §2

[11] = molecular target: T4, EGFRvIII-mmh; assay: SPR 37C, mAb-capture
[12] = molecular target: T6, EGFRvIII-mFc; assay: SPR 37C, mAb-capture
[13] = molecular target: T6, EGFRvIII-mFc; assay: SPR 37C, receptor-capture
Experimental: as §3

[14] = molecular target: T3, EGFR-mmh; assay: ELISA
Description: as §2

[15] = molecular target: T3, EGFR-mmh; assay: SPR 37C, mAb-capture
[16] = molecular target: T5, EGFR-mFc; assay: SPR 37C, mAb-capture
[17] = molecular target: T5, EGFR-mFc; assay: SPR 37C, receptor-capture
Experimental: as §3

Row | Binder | A431 MFI [2] | Fold Above Background [2] | HEK293/EGFRvIII MFI [7] | Ratio (EGFRvIII MFI/parental MFI) [7] | Kd [8] | koff [8] | kon [8] | EC50 [10] | Kd [11] | T½ [11] | koff [11] | kon [11] | Kd [12] | T½ [12] | koff [12] | kon [12] | Kd [13] | T½ [13] | koff [13] | kon [13] | other results
1 | H1H1911N (antibody, human IgG1, V domains shown, Human IgG1 Fc; also called H2M1911N (same variable domains)) VH: QVQLVESGGGVVQPGRSLRLSCAASGFTFSRYGIHWVRQAPGKGLEWVAVIWHDGSNKYYADSVKGRFTISRDNSKNTLYLQMTSLRAEDTAVYYCARDGLEIRDHYYYGMDVWGQGTTVTVSS VL: DIQMTQSPSTLSASVGDRVTITCRASQSTSSWLAWYQQKPGKAPTLLIYKASSLESGVPSKFSGSGSGTEFTLTISSLQPDDFATYYCQQYNRYSRTFGQGTKVEIK | 3140 MFI | 2.2 fold | 55100 MFI | 15.3 | 224 nM | 0.00174 s⁻¹ | 7770 M⁻¹ s⁻¹ | – | – | – | – | – | – | – | – | – | – | – | – | – | Fluorescent Intensity of vesicles 4° C., Mean [1]: 29800; Fluorescent Intensity of vesicles 37° C., Mean [1]: 280000; A431 MFI [3]: 16000 MFI; Fold Above Background [3]: 2.4 fold; EC50 [4]: 9.06 nM; HEK293/EGFRvIII MFI [5]: 107000 MFI; Ratio (EGFRvIII MFI/parental MFI) [5]: 59.1; EC50 [6]: 0.0748 nM; T½ [8]: 7 min; Kd [9]: 19.5 nM; T½ [9]: 18 min; koff [9]: 0.000643 s⁻¹; kon [9]: 32900 M⁻¹ s⁻¹
2 | H1H1912N (antibody, human IgG1, V domains shown, Human IgG1 Fc; also called H2M1912N (same variable domains)) VH: EVQLVESGGGLVQPGRSLRLSCAASGFTFDDYAMHWVRQVPGKGLEWVSGISWNSGSIGYADSVKGRFTISRDNAKNSLYLQMNSLRAEDTALYYCAKDIHDYGKDYYYYYGMDVWGQGTTVTVSS VL: EIALTQSPGTLSLSPGERATLSCRASQSVSSTYLAWYQQKPGQAPRLLIYGASSRATGIPDRFSGSGSGTDFTLTISRLEPEDFAVYYCQQYDSSPITFGQGTRLEIK | – | – | 122000 MFI | 32.7 | 22.9 nM | 0.000914 s⁻¹ | 39900 M⁻¹ s⁻¹ | 0.0118 nM | 899 nM | 0.7 min | 0.0164 s⁻¹ | 18300 M⁻¹ s⁻¹ | 47.7 nM | 12 min | 0.000971 s⁻¹ | 20400 M⁻¹ s⁻¹ | 5.4 nM | 0.367 h | 0.000537 s⁻¹ | 99000 M⁻¹ s⁻¹ | Fluorescent Intensity of vesicles 4° C., Mean [1]: 4910; Fluorescent Intensity of vesicles 37° C., Mean [1]: 370000; A431 MFI [3]: 14300 MFI; Fold Above Background [3]: 2.1 fold; EC50 [4]: 0.0405 nM; T½ [8]: 13 min
3 | H1H1863N2(Fuc+) (antibody, human IgG1, V domains shown, the numerical identifier ties them; also called H1H863N2; H1H863N2(Fuc+)) VH: EVQLVESGGGLVQPGGSLRLSCAASGFPFSSYDMHWVRQATGKGLEWVSAIGTAGATYYPGSVKGRFTISRENAKNSLYLQMNSLRAGDTAVYYCARGDYVWGTYRPLFDYWGQGTLVTVSS VL: DIQLTQSPSFLSASVGDRVTITCWASQGINNYLAWYQQKPGKAPKLLIYAASTLQTGVPSRFSGSGSGTEFTLTISSLQPEDFATYYCQQLNSYPLTFGGGTKVEIK | – | – | – | – | – | – | – | – | – | – | – | – | – | 14 min | – | – | – | 0.933 h | – | – | –
4 | H1H1913N (antibody, human IgG1, V domains shown, Human IgG1 Fc; also called H3M1913N (same variable domains)) VH: QVQLQQWGAGLLKPSETLSLTCAVYGGSFSGDYWSWIRQSPGKGLEWIGEINHSGSTNYNPSLKSRVTISIDTSKNQFSLKLSSVTAADTAVYYCARGGGDYYYGMDVWGLGTTVTVSS VL: AIQMTQSPSSLSASVGDRVTITCRASQGIGNDLGWYQQKPGKAPNLLIYATSSLQSGVPSRFSGSGSGTDFTLTISSLQPEDFATYYCLQDYNYPWTFGQGTKVEIK | – | – | 239000 MFI | 49.8 | ≤ 0.169 nM | ≤ 1e-06 s⁻¹ | 5930 M⁻¹ s⁻¹ | 2.14 nM | 7030 nM | 10 min | 0.00114 s⁻¹ | 163 M⁻¹ s⁻¹ | 22.6 nM | 37 min | 0.000316 s⁻¹ | 14000 M⁻¹ s⁻¹ | ≤ 0.0159 nM | 192 h | ≤ 1e-06 s⁻¹ | 63000 M⁻¹ s⁻¹ | EC50 [4]: 2.55 nM
5 | H1H1915N (antibody, human IgG1, V domains shown, Human IgG1 Fc; also called H2M1915N (same variable domains)) VH: QVQLVESGGGVVQPGRSLRLSCAASGFTFSAYAMHWVRQAPGKGLEWVAVIWYDGSNKNYADSVKGRFTVSRDNSKNTLYLEMNSLRAEDTAVYYCARDLMVGVTNYWGQGTLVTVST VL: DVVMTQSPLSLPVALGQPASISCRSSQSLVYTDGNTYLNWFHQRPGQSPRRLIYKVSNRDSGVPDRFTGSGSGTDFTLKISRVEAEDVGVFYCMQGSHWPPYTFGQGTKLEIK | – | – | 73400 MFI | 21.2 | 184 nM | 0.00801 s⁻¹ | 43500 M⁻¹ s⁻¹ | – | – | – | – | – | – | – | – | – | – | – | – | – | A431 MFI [3]: 8440 MFI; Fold Above Background [3]: 1.2 fold; EC50 [6]: 0.167 nM; T½ [8]: 1.4 min; Kd [9]: 3.2 nM; T½ [9]: 35 min; koff [9]: 0.000328 s⁻¹; kon [9]: 100000 M⁻¹ s⁻¹
6 | H1H2194P (antibody, human IgG1, V domains shown, Human IgG1 Fc; also called H1H2194N) VH: QVQLVQSGAEVKKPGASVKVSCKASGYTFTSYDINWVRQATGQGLEWMGWINPNSDYTGYVQKFQGRVTMTRDTSISTAYMELSSLRSEDTAVYYCATSRWSEHFHHWGQGTLVTVSS VL: not shown | 2290 MFI | 1.6 fold | – | – | – | – | – | 0.0032 nM | 17 nM | 8 min | 0.00137 s⁻¹ | 81000 M⁻¹ s⁻¹ | 2.33 nM | 52 min | 0.000222 s⁻¹ | 95400 M⁻¹ s⁻¹ | 0.394 nM | 2.62 h | 7.38e-05 s⁻¹ | 188000 M⁻¹ s⁻¹ | EC50 [14]: 0.0037 nM; Kd [15]: 12.6 nM; T½ [15]: 12 min; koff [15]: 0.00096 s⁻¹; kon [15]: 76000 M⁻¹ s⁻¹; Kd [16]: 2.43 nM; T½ [16]: 58 min; koff [16]: 0.000199 s⁻¹; kon [16]: 81000 M⁻¹ s⁻¹; Kd [17]: 0.38 nM; T½ [17]: 163 min; koff [17]: 7.07e-05 s⁻¹; kon [17]: 187000 M⁻¹ s⁻¹; HEK293/EGFRvIII MFI [5]: 18600 MFI; Ratio (EGFRvIII MFI/parental MFI) [5]: 18.9
7 | H1H2195P (antibody, human IgG1, V domains shown, Human IgG1 Fc; also called H1H2195N) VH: QVQLVESGGGVVQPGRSRRLSCVGSGFIFSSYGMHWVRQAPGKGLEWVALIFYDGSNEYYVDSVKGRFTISRDNSKNTLYLQMNSLRAEDTAVYYCAREGYSQRYKYYFGMDVWGQGTTVTVSS VL: DIQMTQSPSSVSASVGDRVTITCRASQGISSWLAWYQQQPGKAPKLLIYAASSLQSGVPSRFSGSGSGTDFTLTISSLQPEDFATYYCQQTNSFPLTFGGGTKVEIKR | 2230 MFI | 1.6 fold | – | – | – | – | – | 0.0049 nM | 10.7 nM | 17 min | 0.000694 s⁻¹ | 64800 M⁻¹ s⁻¹ | 1.1 nM | 103 min | 0.000113 s⁻¹ | 102000 M⁻¹ s⁻¹ | 0.106 nM | 7.6 h | 2.53e-05 s⁻¹ | 237000 M⁻¹ s⁻¹ | EC50 [14]: 0.0052 nM; Kd [15]: 9.2 nM; T½ [15]: 22 min; koff [15]: 0.000523 s⁻¹; kon [15]: 56600 M⁻¹ s⁻¹; Kd [16]: 2.05 nM; T½ [16]: 61 min; koff [16]: 0.000189 s⁻¹; kon [16]: 92000 M⁻¹ s⁻¹; Kd [17]: 0.231 nM; T½ [17]: 222 min; koff [17]: 5.2e-05 s⁻¹; kon [17]: 225000 M⁻¹ s⁻¹; HEK293/EGFRvIII MFI [5]: 13500 MFI; Ratio (EGFRvIII MFI/parental MFI) [5]: 11.5
